Reference: patent US20170183390A1 (published 2017)
Values belong to the binder of their own block, whether it stands above or below them. Ends that are not written are not given here. * marks the point of attachment. FITC = O=C1OC2(c3ccc(O)cc3Oc3cc(O)ccc32)c2ccc(NC(=S)*)cc21

What was measured:
[1] = biological target: T1, soluble αVβ6 headpiece, disulfide-linked (αV headpiece residues 1-594 with M400C); β6 headpiece residues 1-474 … (UniProt P06756 31-624; P18564 18-491, Interchain disulfide between αV Cys-400 and β6 Cys-270.); assay: fluorescence anisotropy competition
T1 alpha: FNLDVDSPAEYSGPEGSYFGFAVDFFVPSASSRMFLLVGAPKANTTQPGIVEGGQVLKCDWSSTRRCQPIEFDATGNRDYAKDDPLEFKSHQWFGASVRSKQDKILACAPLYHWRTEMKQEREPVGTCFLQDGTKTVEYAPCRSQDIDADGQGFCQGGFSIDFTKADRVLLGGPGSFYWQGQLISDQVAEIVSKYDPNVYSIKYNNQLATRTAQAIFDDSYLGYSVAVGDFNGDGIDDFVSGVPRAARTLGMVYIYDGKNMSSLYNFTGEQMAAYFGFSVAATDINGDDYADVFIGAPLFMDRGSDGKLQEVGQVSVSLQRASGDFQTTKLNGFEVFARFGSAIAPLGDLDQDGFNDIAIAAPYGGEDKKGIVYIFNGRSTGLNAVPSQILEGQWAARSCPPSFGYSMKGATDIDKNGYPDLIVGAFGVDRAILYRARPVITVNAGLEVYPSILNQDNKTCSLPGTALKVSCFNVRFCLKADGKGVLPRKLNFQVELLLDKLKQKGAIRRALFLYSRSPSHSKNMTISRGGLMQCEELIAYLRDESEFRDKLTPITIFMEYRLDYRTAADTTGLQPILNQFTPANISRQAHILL
T1 beta: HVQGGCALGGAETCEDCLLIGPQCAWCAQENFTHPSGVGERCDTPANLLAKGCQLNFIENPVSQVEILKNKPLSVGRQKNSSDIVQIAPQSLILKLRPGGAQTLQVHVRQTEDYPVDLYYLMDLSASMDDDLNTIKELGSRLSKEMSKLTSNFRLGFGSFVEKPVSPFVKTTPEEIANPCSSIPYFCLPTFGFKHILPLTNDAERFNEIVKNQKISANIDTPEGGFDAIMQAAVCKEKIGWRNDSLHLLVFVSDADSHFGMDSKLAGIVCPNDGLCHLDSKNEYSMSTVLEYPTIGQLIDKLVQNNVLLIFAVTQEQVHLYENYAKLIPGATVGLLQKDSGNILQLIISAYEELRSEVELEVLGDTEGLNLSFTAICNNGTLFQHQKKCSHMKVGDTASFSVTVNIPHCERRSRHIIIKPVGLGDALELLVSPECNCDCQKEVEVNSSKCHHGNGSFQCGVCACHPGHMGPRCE

[2] = biological target: T2, soluble αVβ6 headpiece, disulfide-linked (αV headpiece residues 1-594 with M400C); β6 headpiece residues 1-474 … (human, UniProt P06756 31-624; P18564 18-491, Interchain disulfide between αV Cys-400 and β6 Cys-270.); assay: crystal structure, peptide soaked into αVβ6 headpiece crystals
T2 construct: The 3C site, ACID/BASE coiled-coils, Strep-II tag and His tags were cut off with 3C protease; The two chains are linked by the introduced disulfide bond; also called modified integrin αVβ6 headpiece dimer; full headpiece
Description: αVβ₆ headpiece crystallization, data collection and structure determination. αVβ₆ crystals in hanging drops were formed with 3 mg/ml αVβ₆ headpiece in 20 mM Tris-HCl pH 8.0, 150 mM NaCl, 1 mM CaCl₂ and 1 mM MgCl₂ buffer (1 μl) and 1 μl reservoir solution of 20% PEG 4000, 0.1 M sodium cacodylate pH 6.0, 0.2 M ammonium sulfate. Identical vol:vol mixture of the protein and crystallization buffers yields a pH of 6.5. […] Immediately prior to flash freezing in liquid N₂, crystals were dipped in reservoir solution containing 25% glycerol with or without peptide, MgCl₂, and CaCl₂ each at 0.25 mM.

[3] = biological target: T2, soluble αVβ6 headpiece, …; assay: fluorescence anisotropy, saturation binding, Mn2+/Ca2+
Description: (§1) (SEQ ID NO: 68), was synthesized. […] By competition binding assay, the affinities of different ligands were measured.
(§2) Fluorescence anisotropy. […] Binding affinities were calculated as described in Ref. 23.

[4] = biological target: T2, soluble αVβ6 headpiece, …; assay: fluorescence anisotropy, saturation binding, 1 mM Mg2+/Ca2+
Description: as §1, §2

[5] = biological target: T1, soluble αVβ6 headpiece, …; assay: fluorescence anisotropy; pH 5.0
[6] = biological target: T1, soluble αVβ6 headpiece, …; assay: fluorescence anisotropy; pH 6.0
[7] = biological target: T1, soluble αVβ6 headpiece, …; assay: fluorescence anisotropy; pH 7.0
[8] = biological target: T1, soluble αVβ6 headpiece, …; assay: fluorescence anisotropy; pH 8.0
[9] = biological target: T1, soluble αVβ6 headpiece, …; assay: fluorescence anisotropy; pH 9.0
[10] = biological target: T3, soluble αVβ3 headpiece, disulfide-linked (αV headpiece residues 1-594 with M400C); β3 headpiece residues 1-472 … (UniProt P06756 31-624; P05106 27-498, Interchain disulfide between αV Cys-400 and β3 Cys-267.); assay: fluorescence anisotropy competition
T3 alpha: T1 alpha
T3 beta: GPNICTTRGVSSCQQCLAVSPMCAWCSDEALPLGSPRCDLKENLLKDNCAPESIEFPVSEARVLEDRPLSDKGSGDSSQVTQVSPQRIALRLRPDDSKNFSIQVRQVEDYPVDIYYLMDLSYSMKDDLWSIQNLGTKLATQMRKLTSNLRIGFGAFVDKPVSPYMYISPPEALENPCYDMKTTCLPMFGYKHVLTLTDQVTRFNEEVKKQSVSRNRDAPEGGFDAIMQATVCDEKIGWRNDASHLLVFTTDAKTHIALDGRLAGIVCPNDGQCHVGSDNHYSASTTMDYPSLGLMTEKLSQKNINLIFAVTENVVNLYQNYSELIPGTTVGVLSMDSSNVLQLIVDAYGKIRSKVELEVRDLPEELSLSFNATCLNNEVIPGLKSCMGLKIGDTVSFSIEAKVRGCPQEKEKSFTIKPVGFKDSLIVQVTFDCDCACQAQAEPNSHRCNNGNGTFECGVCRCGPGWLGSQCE

[11] = biological target: T2, soluble αVβ6 headpiece, …; assay: fluorescence anisotropy, competition with FITC-GRGDLGRL on the αVβ6 headpiece
Description: (§3) Ligands bind to the integrin headpiece, which contains the α-subunit β-propeller domain and thigh domain, and the β-subunit βI, hybrid, PSI, and EGF1 domain. […] (SEQ ID NO: 68), peptide affinity for the αVβ₆ and αVβ₃ headpiece was measured with fluorescence anisotropy.
as §2

[12] = biological target: T4, soluble αVβ3 headpiece, disulfide-linked (αV headpiece residues 1-594 with M400C); β3 headpiece residues 1-472 … (human, UniProt P06756 31-624; P05106 27-498, Interchain disulfide between αV Cys-400 and β3 Cys-267.); assay: fluorescence anisotropy, competition with FITC-GRGDLGRL on the αVβ3 headpiece
T4 construct: tags and coiled-coils cut off with 3C protease
Description: as §3, §2

Binder: HGRGDL
Kd [1]: 966 nM

Binder: {FITC}-GRGDLGRL (also called the probe) [FITC-GRGDLGRL (FITC-pro-TGF-β3 peptide, fluorescence probe)]
Kd [3]: 10 nM | Kd [4]: 100 nM | Kd [5]: 3810 nM | Kd [6]: 2000 nM | Kd [7]: 212 nM | Kd [8]: 84.6 nM | Kd [9]: 27.4 nM

Binder: HGRGDLGR
Kd [1]: 296 nM

Binder: HGRGDLG
Kd [1]: 691 nM

Binder: HGRGD
Kd [1]: 8900 nM

Binder: HGRGDLGRL
Kd [1]: 28.4 nM

More lines, now with the values ahead:

binding result [2]: binds | Kd [1]: 7.3 nM
B1: pro-TGF-β3 undecapeptide Ac-HGRGDLGRLKK-NH2 (peptide)
peptide: Ac-HGRGDLGRLKK-NH2
notes: also called Pro-TGF-β3 peptide; TGF-β3 peptide

Kd [10]: 4800 nM | Kd [11]: 8500 nM | fold lower affinity than the pro-TGF-β1 and pro-TGF-β3 nonapeptides [11]: 1000 fold
Binder: TSGDQKTIK (also called pro-TGF-β2 peptide) [homologous peptide from pro-TGF-β2, which has SGDQ in place of RGDL of pro-TGF-β1]

Kd [1]: 20.3 nM
Binder: HGRGDLGRLK

Kd [10]: 2300 nM | fold lower affinity than for αVβ6 [12]: 1000 fold | Kd [11]: 8.5 nM
B2: nonapeptide containing RGD from pro-TGF-β3 (GRGDLGRLK) (peptide)
peptide: GRGDLGRLK
notes: also called pro-TGF-β3 peptide; TGF-β3 nonapeptide

Kd [11]: 10.3 nM
Binder: RRGDLATIH (also called pro-TGF-β1 peptide) [nonapeptide containing RGD from pro-TGF-β1]
